This is an account of results in patent US10400249B2, “HPPD variants and methods of use” (priority 2014, dated 2019).

Series [1] relates to Pseudomonas fluorescens HPPD protein. The experiment in a line: OD assay: HPPD activity and pI50 from HPP remaining after derivatisation with DNP. Particulars: for Activity DeltaE/24 min μg Protein: HPPD enzyme activity of the clone; for tolerance (pI50) Cmpd. 2: inhibitor Cmpd. 2; for tolerance (pI50) DKN: inhibitor diketonitrile (DKN), negative log of molar concentration; for tolerance (pI50) MST: inhibitor mesotrione (MST); for tolerance (pI50) TBT: inhibitor tembotrione (TBT). The format is biochemical. How it is done: (§1) HPPD proteins were produced and purified as described in WO2011/076882. The activity of HPPD proteins in absence or presence of HPPD inhibitors was determined using either the so called OD assay or the HGD assay.
(§2) • a) The OD assay: The HPPD activity was determined colourimetrically by measuring the amount of HPP remaining in the assay mixture at the end of the incubation period after derivatisation of HPP with 2,4-dinitrophenylhydrazine (DNP) to form an amber-brown colored 2,4-dinitrophenylhydrazone under alkaline conditions. The assay was carried out at room temperature in Greiner F-bottom 96 well microplates. The assay mixture contained 50 mM Tris-HCl pH 7.8, 0.5 mM HPP, 10 mM ascorbate, 650 units of catalase and appropriate amounts of purified HPPD enzyme in a total assay volume of 100 μl. The reaction was started by the addition of enzyme. After an incubation time of 24 minutes, the reaction was stopped by the addition of 50 μl of a solution of 0.04% DNP dissolved in 3.8 N HCl. After a further 15-minute incubation period 100 μl of a 5 N KOH solution was added to the reaction mixture and the amount of unconsumed HPP was measured photometrically at 405 nm. Enzyme activity was calculated as the difference in E405 between assays lacking enzyme (negative control) and the enzyme containing assays (ΔE405=E405(negative control)−E405). Enzyme activity (nmol substrate consumed per min) was calculated from a calibration curve generated from HPP. pI50-values (the negative log value of the concentration of inhibitor necessary to inhibit 50% of the enzyme activity in molar concentration were determined from dose-response plots of HPPD activity versus inhibitor concentration tested (5.0×10^−6, 1.0×10^−5, 2.5×10^−5, 4.0×10^−5, 7.0×10^−5, 1.0×10^−4, 2.0×10^−4 and 5.0×10^−4M) using the 4 Parameter Logistic Model or Sigmoidal Dose-Response Model of the ID Business Solutions Ltd. XLfit software suite. The result “>5.6” means that the inhibition at the lowest inhibitor concentration tested was higher than 85% and the pI50-value could therefore not be precisely calculated within in the range of concentration of inhibitor tested. The result “<2.5” means that the inhibition at the highest inhibitor concentration tested was lower than 25% and the pI50-value could therefore not be precisely calculated within in the range of concentration of inhibitor tested. “n.d.” means not determined. • b) The HGD assay: With the HGD assay HPPD activity was measured at room temperature by adding appropriate amounts of HPPD to a solution of 200 mM Tris-HCl pH 7.6, 10 mM ascorbate, 20 μM FeSO4, 650 units of catalase, 8 μg HGA dioxygenase (HGA: homogentisate) and 600 μM HPP in a total volume of 1 ml. Initial reaction rates in the absence or presence of inhibitors were determined from the increase in absorbance at 318 nm due to the formation of maleylacetoacetate (ε318=11,900 M−1 cm-1). pI50-values (the negative log value of the concentration of inhibitor necessary to inhibit 50% of the enzyme activity in molar concentration were determined from dose-response plots of HPPD activity versus inhibitor concentration tested using the 4 Parameter Logistic Model or Sigmoidal Dose-Response Model of the ID Business Solutions Ltd. XLfit software suite. Due to the UV absorption of the HPPD inhibitors tested, inhibitor concentrations >100 μM could not be tested. The result “<4” means that the inhibition at 100 μM inhibitor concentration was lower than 25% and the pI50-value could therefore not be precisely calculated within in the range of concentration of inhibitor tested. “n.d.” means not determined. The HGD assay allowed to continuously follow HPPD-catalyzed HGA formation over time was therefore used to determine the inhibition type of the HPPD inhibitors tested. […] When in the presence of an inhibitor the HPPD activity was inhibited but the inhibition was found not to […] in a time-dependent manner, the inhibitor was called reversible (abbreviation “rev”). […]

Series [2] has the same test system. The experiment in a line: HGD assay: HPPD activity coupled to HGA dioxygenase, pI50 and type of inhibition (time-course). The format is biochemical. As to conditions: for pI50-values of Cmpd. 2: assay not given, follows the time-course analysis (HGD assay). How it is done:
as §1, §2

B1: K357: PfHPPD variant A188G, R189C, E335P, G336F, A340E (protein)
chain: MADLYENPMGLMGFEFIEFASPTPGTLEPIFEIMGFTKVATHRSKNVHLYRQGEINLILNNEPNSIASYFAAEHGPSVCGMAFRVKDSQKAYNRALELGAQPIHIDTGPMELNLPAIKGIGGAPLYLIDRFGEGSSIYDIDFVYLEGVERNPVGAGLKVIDHLTHNVYRGRMVYWANFYEKLFNFREGCYFDIKGEYTGLTSKAMSAPDGMIRIPLNEESSKGAGQIEEFLMQFNGEGIQHVAFLTDDLVKTWDALKKIGMRFMTAPPDTYYEMLEGRLPDHGEPVDQLQARGILLDGSSVEGDKRLLLQIFSETLMGPVFFEFIQRKGDDGFGPFNFKELFESIERDQVRRGVLTAD
modifications: HPPD variant - K357
notes: PfHPPD variant A188G, R189C, E335P, G336F, A340E
B1: in series [1], the “Activity DeltaE/24 min μg Protein” value is recorded as 0.47 DeltaE/24 min μg Protein, the “tolerance (pI50) Cmpd. 2” value turned out to be 5.4, the “tolerance (pI50) DKN” value worked out at 3.5 and the “tolerance (pI50) MST” value worked out at 4.1. The “tolerance (pI50) TBT” value in series [1] was found to be 5.3. Besides, in series [2], the “mechanism of inhibition by Cmpd. 2, time-course of inhibition” value (“mechanism of inhibition” for short) is reported as “fully reversible inhibitor” and the “pI50-values of Cmpd. 2” value is given as 5.1.

B2: K361: PfHPPD variant L200M, E335P, G336F, A340E (protein)
chain: MADLYENPMGLMGFEFIEFASPTPGTLEPIFEIMGFTKVATHRSKNVHLYRQGEINLILNNEPNSIASYFAAEHGPSVCGMAFRVKDSQKAYNRALELGAQPIHIDTGPMELNLPAIKGIGGAPLYLIDRFGEGSSIYDIDFVYLEGVERNPVGAGLKVIDHLTHNVYRGRMVYWANFYEKLFNFREARYFDIKGEYTGMTSKAMSAPDGMIRIPLNEESSKGAGQIEEFLMQFNGEGIQHVAFLTDDLVKTWDALKKIGMRFMTAPPDTYYEMLEGRLPDHGEPVDQLQARGILLDGSSVEGDKRLLLQIFSETLMGPVFFEFIQRKGDDGFGPFNFKELFESIERDQVRRGVLTAD
modifications: HPPD variant - K361
notes: PfHPPD variant L200M, E335P, G336F, A340E
Turning to B2, in series [1], the “Activity DeltaE/24 min μg Protein” value was 0.21 DeltaE/24 min μg Protein, the “tolerance (pI50) Cmpd. 2” value came to 5.2, the “tolerance (pI50) DKN” value was 3.4 and the “tolerance (pI50) MST” value came to 4.0. Further, in series [1], the “tolerance (pI50) TBT” value amounted to 5.1. In series [2], the “mechanism of inhibition” value is “fully reversible inhibitor” and the “pI50-values of Cmpd. 2” value is listed as 5.3.

B3: K360: PfHPPD variant L200I, E335P, G336F, A340E (protein)
chain: MADLYENPMGLMGFEFIEFASPTPGTLEPIFEIMGFTKVATHRSKNVHLYRQGEINLILNNEPNSIASYFAAEHGPSVCGMAFRVKDSQKAYNRALELGAQPIHIDTGPMELNLPAIKGIGGAPLYLIDRFGEGSSIYDIDFVYLEGVERNPVGAGLKVIDHLTHNVYRGRMVYWANFYEKLFNFREARYFDIKGEYTGITSKAMSAPDGMIRIPLNEESSKGAGQIEEFLMQFNGEGIQHVAFLTDDLVKTWDALKKIGMRFMTAPPDTYYEMLEGRLPDHGEPVDQLQARGILLDGSSVEGDKRLLLQIFSETLMGPVFFEFIQRKGDDGFGPFNFKELFESIERDQVRRGVLTAD
modifications: HPPD variant - K360
notes: PfHPPD variant L200I, E335P, G336F, A340E
Take B3: in series [1], the “Activity DeltaE/24 min μg Protein” value is listed as 0.28 DeltaE/24 min μg Protein, the “tolerance (pI50) Cmpd. 2” value stood at 5.3, the “tolerance (pI50) DKN” value is on record as 3.6 and the “tolerance (pI50) MST” value came out at 4.3. The “tolerance (pI50) TBT” value in series [1] is given as 5.3. Also, in series [2], the “mechanism of inhibition” value is “fully reversible inhibitor” and the “pI50-values of Cmpd. 2” value came out at 5.5.

B4: K303: PfHPPD variant L200I, P215L, E335P, G336F, A340E (protein)
chain: MADLYENPMGLMGFEFIEFASPTPGTLEPIFEIMGFTKVATHRSKNVHLYRQGEINLILNNEPNSIASYFAAEHGPSVCGMAFRVKDSQKAYNRALELGAQPIHIDTGPMELNLPAIKGIGGAPLYLIDRFGEGSSIYDIDFVYLEGVERNPVGAGLKVIDHLTHNVYRGRMVYWANFYEKLFNFREARYFDIKGEYTGITSKAMSAPDGMIRILLNEESSKGAGQIEEFLMQFNGEGIQHVAFLTDDLVKTWDALKKIGMRFMTAPPDTYYEMLEGRLPDHGEPVDQLQARGILLDGSSVEGDKRLLLQIFSETLMGPVFFEFIQRKGDDGFGPFNFKELFESIERDQVRRGVLTAD
modifications: HPPD variant - K303
notes: PfHPPD variant L200I, P215L, E335P, G336F, A340E
Take B4: in series [1], the “Activity DeltaE/24 min μg Protein” value was determined as 0.008 DeltaE/24 min μg Protein, the “tolerance (pI50) Cmpd. 2” value came out at 4.6, the “tolerance (pI50) MST” value turned out to be 3.2 and the “tolerance (pI50) TBT” value worked out at 4.2. Also, in series [2], the “mechanism of inhibition” value is given as “fully reversible inhibitor” and the “pI50-values of Cmpd. 2” value is recorded as 5.0.

B5: K304: PfHPPD variant L200M, P215L, E335P, G336F, A340E (protein)
chain: MADLYENPMGLMGFEFIEFASPTPGTLEPIFEIMGFTKVATHRSKNVHLYRQGEINLILNNEPNSIASYFAAEHGPSVCGMAFRVKDSQKAYNRALELGAQPIHIDTGPMELNLPAIKGIGGAPLYLIDRFGEGSSIYDIDFVYLEGVERNPVGAGLKVIDHLTHNVYRGRMVYWANFYEKLFNFREARYFDIKGEYTGMTSKAMSAPDGMIRILLNEESSKGAGQIEEFLMQFNGEGIQHVAFLTDDLVKTWDALKKIGMRFMTAPPDTYYEMLEGRLPDHGEPVDQLQARGILLDGSSVEGDKRLLLQIFSETLMGPVFFEFIQRKGDDGFGPFNFKELFESIERDQVRRGVLTAD
modifications: HPPD variant - K304
notes: PfHPPD variant L200M, P215L, E335P, G336F, A340E
B5: in series [1], the “Activity DeltaE/24 min μg Protein” value is 0.011 DeltaE/24 min μg Protein, the “tolerance (pI50) Cmpd. 2” value is listed as 4.6, the “tolerance (pI50) MST” value was 3.2 and the “tolerance (pI50) TBT” value is given as 4.2. For the same molecule, in series [2], the “mechanism of inhibition” value is “fully reversible inhibitor” and the “pI50-values of Cmpd. 2” value is 4.7.

B6: PfG336F: reference PfHPPD mutant G336F (protein)
chain: MADLYENPMGLMGFEFIEFASPTPGTLEPIFEIMGFTKVATHRSKNVHLYRQGEINLILNNEPNSIASYFAAEHGPSVCGMAFRVKDSQKAYNRALELGAQPIHIDTGPMELNLPAIKGIGGAPLYLIDRFGEGSSIYDIDFVYLEGVERNPVGAGLKVIDHLTHNVYRGRMVYWANFYEKLFNFREARYFDIKGEYTGLTSKAMSAPDGMIRIPLNEESSKGAGQIEEFLMQFNGEGIQHVAFLTDDLVKTWDALKKIGMRFMTAPPDTYYEMLEGRLPDHGEPVDQLQARGILLDGSSVEGDKRLLLQIFSETLMGPVFFEFIQRKGDDGFGEFNFKALFESIERDQVRRGVLTAD
modifications: HPPD variant - Pf336F
B6: in series [1], the “Activity DeltaE/24 min μg Protein” value is recorded as 0.66 DeltaE/24 min μg Protein. Moreover, the “tolerance (pI50) DKN” value in series [1] was found to be 5.3; in series [2] (inhibitor diketonitrile (DKN), HGD assay), 5.1. In addition, the “tolerance (pI50) MST” value in series [1] is recorded as 5.6; in series [2] (inhibitor mesotrione (MST), HGD assay), 5.1. For the same molecule, the “tolerance (pI50) TBT” value in series [2] (inhibitor tembotrione (TBT), HGD assay) was 5.9.
